Reference: patent publication US20140370037A1 (published 2014)

T1: human DLL3 antigen (human, UniProt Q9NYJ7 27-492, limits assumed)
T1 construct: also called immobilized human DLL3; recombinant human DLL3
T1 sequence (looked up): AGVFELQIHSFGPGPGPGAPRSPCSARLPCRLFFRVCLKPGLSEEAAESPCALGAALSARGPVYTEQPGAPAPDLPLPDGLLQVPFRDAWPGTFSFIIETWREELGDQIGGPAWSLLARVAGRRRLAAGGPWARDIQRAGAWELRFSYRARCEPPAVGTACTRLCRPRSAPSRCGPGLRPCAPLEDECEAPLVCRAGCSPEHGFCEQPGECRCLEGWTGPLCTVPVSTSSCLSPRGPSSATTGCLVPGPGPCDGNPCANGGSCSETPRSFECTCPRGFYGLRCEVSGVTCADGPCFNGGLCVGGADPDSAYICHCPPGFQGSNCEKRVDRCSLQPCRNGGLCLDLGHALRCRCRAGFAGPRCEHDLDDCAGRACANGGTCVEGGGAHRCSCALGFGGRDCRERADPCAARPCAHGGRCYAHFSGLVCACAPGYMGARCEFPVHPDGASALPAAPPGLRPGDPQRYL

B1: SC16.7 (antibody, V domains shown)
VH: EVQLQQSGPELVKPGASVKISCKASGYSFTGYKMHWVKQSHVKSLEWIGRINPYNGATSYNQNFKDKATLTVDKSSSTAYMDLHSLTSEDSAVYFCARGDYRYDWFAYWGQGTLVTVSA
VL: NIMMTQSPSSLAVSAGEKVTMSCKSSQSVLYSSNQKNYLAWYQQKPGQSPKLLIYWASTRESGVPDRFTGSGSGTDFTLTISTVQVEDLAVYYCHQYLSSWTFGGGTKLEIK
notes: murine mAb
B2: SC16.88 (antibody, V domains shown)
VH: QVQLQQSGAELARPGASVKLSCKASGYTCTSYWMQWVKQRPGQGLEWIGAIYPGDGDTRYTQKFKGKATLTADKSSSTAYMQLSSLASEDSAVYYCARGRRTEAWFAYWGQGTLVTVSA
VL: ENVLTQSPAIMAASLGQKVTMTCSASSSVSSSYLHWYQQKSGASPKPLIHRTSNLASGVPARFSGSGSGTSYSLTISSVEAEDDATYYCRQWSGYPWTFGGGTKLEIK
notes: murine mAb
B3: SC16.80 (antibody, V domains shown)
VH: EVQLQQSGPELVKPGGSKKISCKASGYSFTGYSMNWVKQSHGKNLEWIGLINPYSGGTIYNQKFKGKATLTVDKSSSTAYMELLSLTSEDSAVYYCARRSDYPLVYWGQGTLVTVSA
VL: ETTVTQSPASLSMAIGEKVTIRCITSTDIDDDMIWYQQKPGEPPKLLISEGNTLRPGVPSRFSSSGYGTDFVFTIENMLSEDVADYYCLKRDDLPYTFGGGTQVEIKR
notes: murine mAb
B4: SC16.61 (antibody, V domains shown)
VH: EVLLQRSGPDLVKPGASVTIPCKASGYTFTDYNMDWVKQSHGKSLEWIGNINTYNGGTIYNQKFKGKATLTVDKPSSTAYMELRSLTSEDTAVYYCARRLRYGGHYFDYWGQGTALTVSS
VL: DIVMTQSTSSLAMSVGQKVTMSCKSSQSLLNSSNQKNYLAWYQQEPGQSPKLLVSFASTRESGVPDRFTGSGSGTDFTLTISGVQAEDLAVYYCQQHYSIPLTFGAGTKLELK
notes: murine mAb
B5: SC16.73 (antibody, V domains shown)
VH: QVQLQQSGAELMKPGASVKISCKANGYTFSSYWIEWLRQRPGHGLEWIGEILPGSDNSNYNEKFKGKATFTADTSSNTAYMQLSSLTSEESAVYYCTRGLRRDGSYYYVMEHWGQGTSVTVSS
VL: DIQMTQSPSSLSASLGERVSLTCRASQDIGYSLNWLQQEPDGTIKRLIYATSSLDSGVPKRFSGSRSGSDYSLTISSLESEDFVDYYCLQYASSPWTFGGGTKLEIK
notes: murine mAb
B6: SC16.49 (antibody, V domains shown)
VH: QVQLQQSGPELVKPGTLVKISCKASGYTFTSYDINWVKQRPGQGLEWIGWIYPGDGNTKYSEKFKGKATLTADKSSSTAYMQLTSLTSENSAVYFCARDYDYPFAYWGQGTLVTVSA
VL: DIKMTQSPSSMYASLGERVTITCKASQDINSYLSWFQQKPGKSPKTLIYRANRLVDGVPSRFSGSGSGQDYSLTITSLEYEDMGIYYCLQYDEFPLTFGAGTKLELK
notes: murine mAb
B7: SC16.78 (antibody, V domains shown)
VH: EVKLVESGGGLVKPGGSLKLSCAASGFTFGRYVMSWVRQTPEKKLEWVASITSGGTTYYPDSVKGRFTISRDNARNILYLQMSSLRSEDTAMYYCARVYYHYDDIFAYWGQGTLVTVSA
VL: DIKMTQSPSSMYASLGERVTITCKASQDINSYLSWFQQKPGRSPKTLIYRANRLVDGVPSRFSGSGSGQDYSLTISSLDYEDMGIYYCLQYDEFPFTFGSGTKLEIK
notes: murine mAb
B8: SC16.84 (antibody, V domains shown)
VH: EVQLQQSGPELVKPGASMKISCKASGYSFTGYTMNWVKQSHGKNLEWIGLINPYNGGTTYNQKFKGKATLTVDKSSSTAYMELLSLTSEDSAVYYCALGYYGNYRRYFDVWGAGTTVTVSS
VL: DIQMTQSPSSLSASLGGKVTITCKASQDIKKYIAWYQHKPGKGPRLLIHYTSTLEPGIPSRFSGSGSGRDYSFSISNLEPEDIATYYCLQYDILWTFGGGTKLEIK
notes: murine mAb
B9: SC16.55 (antibody, V domains shown)
VH: EVQLVESGGGLVQPKGSLKLSCAVSAFTFTTYAMNWVRQAPGKGLEWVARIRNKSNNYATYYADSVKDRFTISRDDSQSMLYLQMNNLKIEDTAMYYCVFYYDYVYWGQGTLVTVSA
VL: DIKMTQSPSSMYASLGERVTITCKASQDINSYLNWFQQKPGKSPKTLIYRANRLVDGVPSRFSGSGSGQDYSLTISSLEYEDMGIYYCLQYDEFPYTFGGGTKLEIKR
notes: murine mAb
B10: SC16.67 (antibody, V domains shown)
VH: EVQLVETGGGLVQPKGSLKLSCAVSAFTFTTYAMNWVRQAPGKGLEWVARIRNKSNNYATYYADSVKDRFTISRDDSQSMLYLQMNNLKIEDTAMYYCVFYYDYVYWGQGTLVTVSA
VL: QAVVTQESALTTSPGETVTLTCRSSTGAVTTSNYANWIQEKPDHLFTGLIGGTNNRAPGVPARFSGSLIGDKAALTITGAQTEDEAIYFCGLWYSNHLVFGGGTKLTVL
notes: murine mAb
B11: SC16.62 (antibody, V domains shown)
VH: EVMLVESGGDLVKPGGSLKLSCAASGFTFSSYAMSWVRQTPEKRLEWVAYISGGGDHIYYPDSVRGRFTISRDNAKDTLYLQMSSLRSEDTALYDCARVRDWYFDVWGAGTTVTVSS
VL: DIKMTQSPSSMYASLGERVTITCKASQDINSFLSWFQRKPGKSPKTLIYRANRLVDGVPSRFTGSGSGQEFSLTISSLEYEDLGIYYCLQYDEFPYTFGGGTKLEIKR
notes: murine mAb
B12: SC16.63 (antibody, V domains shown)
VH: QVQLQQSGTELLRPGASVKISCKATGYTFSSYWMEWVKQRPGHGLEWIGEILPGSGTTQYNEKFKGKATFTADTSSNTAYMHLSSLTSEDSAVYYCARGTNSLWGQGTLVTVSA
VL: QIVLTQSPAIMSASPGEKVTMTCSASSSVSYMYWYQQKSGTSPKRWIYDTSKLASGVPARFSGSGSGTSYSLTISSMEAEDAATYYCQQWSSNPYTFGGGTKLEIK
notes: murine mAb
B13: SC16.56 (antibody, V domains shown)
VH: QIQLVQSGPELKKPGETVKISCKASGYTFTNYGMNWVKQAPGKGLKWMAWINTYTGEPTYADDFKGRFAFSLETSASTASLQIINLKNEDTATYFCARIGDSSPSDYWGQGTTLTVSS
VL: SIVMTQTPKFLLVSAGDRVTITCKASQSVSNDVVWYQQKPGQSPKLLIYYASNRYTGVPDRFAGSGYGTDFSFTISTVQAEDLAVYFCQQDYTSPWTFGGGTKLEIR
notes: murine mAb; also called anti-human/mouse DLL3 (SC16.56)
B14: SC16.58 (antibody, V domains shown)
VH: DVQLVESGGGLVQPGGSRKLSCAASGFTFSSFGMHWVRQAPEKGLEWVAYISSGSSNIYYADTVKGRFTISRDNPKNTLFLQMTSLRSEDTAMYYCARGYYGNYDAMDYWGQGTSVTVSS
VL: DIQMTQSPASLSSSVGETVTITCRASENIYSYLAWYQQKQGKSPQLLVYNAKTLAEGVPSRFSGSGSGTQFSLKINSLQPEDFGTYYCQHHYDSPLTFGAGTKLELR
notes: murine mAb
B15: SC16.65 (antibody, V domains shown)
VH: QVTLKESGPGILQPSQTLSLTCSFSGFSLSTSGMGVGWIRQPSGKGLEWLALIWWDDVKRYNPALKSRLTISKDASSSQVFLKIASVDTADTATYYCARIASYDYDVVYAMDYWGQGTSVSVSS
VL: QIVLTQSPALMSASPGEKVTMTCSVTSSVSYMYWYQQKPRSSPKPWIYLTSNLASGVPARFSGSGSGTSYSLTISSVEAEDAATYYCQQWRNNPFTFGSGTKVEIK
notes: murine mAb
B16: SC16.52 (antibody, V domains shown)
VH: QVQLKESGPGLVAPSQSLSITCAVSGFSLTSFAIHWFRKPPGKGLEWLGVIWTGGTTNYNSALMSRLSISKDNSKSQVFLKMNSLQTDDTAMYYCARDDYDNNYAMDYWGQGTSVTVSS
VL: DIQMIQSPSSMFASLGDRVSLSCRASQGIRGTLDWYQQKPNGTIKLLIYSTSNLNSGVPSRFSGSGSGSDYSLTISSLESEDFADYYCLQRNAYPLTFGAGTKLELK
notes: murine mAb
B17: SC16.81 (antibody, V domains shown)
VH: QVQLKESGPVLVAPSQSLSITCTVSGFSLTSYGVHWVRQPPGKGLEWLGVIWAGGSTNYNSALMSRLSISKDNSKSQVFLKMNSLQTDDTAMYYCAKQGNFYAMDYWGQGTSVTVSS
VL: QIVLTQSPAIMSASLGERVTLTCTASSSVSSSYLHWYQQKPGSSPKLWIYSTSNLASGVPTRFSGSGSGTSYSLRISSMEAEDAATYYCHQYNRSPLTFGAGTKLELK
notes: murine mAb
B18: SC16.57 (antibody, V domains shown)
VH: EVKLVESGGDLVKPGGSLKLSCAASGFAFSSYDMSWVRQTPEKRLEWVATISSGGSYTYYPDSVKGRFTISRDNVRDTLYLQMSSLRSEDTALYYCARQAIGTYFDYWGQGTTLTVSS
VL: DIVMTQSHKFMSISVGDRVSITCKASQDVSIFVAWYQQKPGQSPKLLIYSASYRYTGVPDRFTGSGSGTDFIFTISSVQAEDLAVYYCQQHYGTPFTFGSGTKLKIR
notes: murine mAb
B19: SC16.72 (antibody, V domains shown)
VH: EVQLQQSGPELVKPGASVKMSCKASGYTFTSYVMHWVKQKPGQGLEWIGYINPYNDGTKYNEKFKGKATLTSDKSSSTAYMELSSLTSEDSAVYYCARLRSRAMDYWGQGTSVTVSS
VL: ENVLTQSPAIMSASLGEKVTMSCRASSSVNYMSWYQQKSDASPKLWIYYTSNLAPGVPARFSGSGSGNSYSLTISSMEGEDAATYYCQQFTSSPYTFGGGTKLEIKR
notes: murine mAb
B20: SC16.79 (antibody, V domains shown)
VH: EVQLQQSGPELVKPGASVKISCKTSGYTFTEYTMHWVKQSHGKSLEWIGGINPNNGGTSYNQKFKGKATLTVDKSSSTAYMELRSLTSEDSAVYYCARGPAWFAYWGQGTLVTVSA
VL: DIVMSQSPSSLAVSAGEKVTMSCKSSQSLLNSRTRKNYLAWYQQKPGQSPKLLIYWASTRESGVPDRFTGSGSGTDFTLTISSVQAEDLAVYYCKQSYNLYTFGGGTKLKIKR
notes: murine mAb

Target: T1, human DLL3 antigen
Assay: ELISA or flow cytometry screen

Binding result, binds:
B1
B2
B3
B4
B5
B6
B7
B8
B9
B10
B11
B12
B13
B14
B15
B16
B17
B18
B19
B20
